Laboratory results: PMC12297318, “Removal of promoter CpG methylation by epigenome editing reverses HBG silencing”

B1: HBG -53/-50 CpG sites, methylated (dsDNA)
DNA 1: TGAGGCCAGGGGCCGGCGGCTGGCTAGGGAT
DNA 2: ATCCCTAGCCAGCCGCCGGCCCCTGGCCTCA
modifications: 5-methyl-dC at positions 14 and 17 of sense and 14 and 17 of antisense
B2: HBG -53/-50 CpG sites, unmethylated (dsDNA)
DNA 1: B1 DNA 1
DNA 2: B1 DNA 2
B3: BCAT1 promoter CpG sites, methylated (dsDNA)
DNA 1: CCGGCCCTCTCGCGGCGGAGACTCGCGACCTAGCGGATTGCATCAGCAGGAAGAC
DNA 2: GTCTTCCTGCTGATGCAATCCGCTAGGTCGCGAGTCTCCGCCGCGAGAGGGCCGG
modifications: 5-methyl-dC at sense positions 2,11,13,16,24,26,34 and antisense positions 21,29,31,39,42,44,53
B4: BCAT1 promoter CpG sites, unmethylated (dsDNA)
DNA 1: B3 DNA 1
DNA 2: B3 DNA 2

Columns and labels:
[1] = target: MBD2sc WT (MBD2 MBD-IDR-CC fused to GATAD2A CC) (UniProt Q9UBB5 150-393+Q86YP4:138-178, internal_change); test: EMSA; Protein at 50x molar excess over probe, 10 min at room temperature; binding buffer not stated (protein storage: 10 mM Tris-HCl pH 7.5, 150 mM NaCl, 1 mM EDTA, 1 mM PMSF, 10% glycerol); 6% native PAGE in TBE (45 mM Tris, 45 mM boric acid, 1 mM EDTA) at 4 C; conditions: protein: recombinant; tags: pET32a vector tags (Ni-NTA purified); label: 32P 5' end of antisense strand; blunt
Chain of MBD2sc WT (MBD2 MBD-IDR-CC fused to GATAD2A CC) (Q9UBB5 other isoform, or with tags, fused parts or gaps): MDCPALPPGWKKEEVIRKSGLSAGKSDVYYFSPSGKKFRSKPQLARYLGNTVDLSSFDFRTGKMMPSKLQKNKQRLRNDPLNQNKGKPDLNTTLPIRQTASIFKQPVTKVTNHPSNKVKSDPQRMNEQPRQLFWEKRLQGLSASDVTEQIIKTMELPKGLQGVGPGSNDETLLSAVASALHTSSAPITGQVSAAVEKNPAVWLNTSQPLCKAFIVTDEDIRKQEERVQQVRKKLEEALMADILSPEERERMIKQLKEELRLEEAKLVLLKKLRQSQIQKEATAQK

[2] = target: MBD2sc Y178F (UniProt Q9UBB5 150-393+Q86YP4:138-178, Y178F;internal_change); test: as above; conditions: protein: recombinant; tags: pET32a vector tags (Ni-NTA purified); label: 32P 5' end of antisense strand; blunt
Chain of MBD2sc Y178F (Q9UBB5 other isoform, or with tags, fused parts or gaps Y178F/| Y178F Y178F): as the sequence (Q9UBB5 other isoform, or with tags, fused parts or gaps) above, with Y29F counted along it

Row | Binder | binding result [1] | binding result [2]
1 | B1 | binds | no binding
2 | B2 | no binding | 
3 | B3 | binds | no binding
4 | B4 | no binding | 
